# Experimental data reported in publication PMC3748285 (Cell reports, 2013).
# Key:
# [1] = molecular target: LTag131-627 V350E/P417D (Simian virus 40); assay: SEC + other: SDS-PAGE gel quantification
# SEC = molecular target: the molecule itself; assay: SEC
# crystal structure = molecular target: the molecule itself; assay: crystal structure
# [2] = molecular target: SV40 large T antigen LTag131-627 (Simian virus 40, UniProt P03070 131-627); assay: X-ray crystallography
molecule,measurement,setting,value
LTag131-627 L286Dt/R567E (domain or fragment),stoichiometry N,[1],1 mut1:mut2
SV40 large tumor antigen LTag131-627 (wild type) (domain or fragment) KVEDPKDFPSELLSFLSHAVFSNRTLACFAIYTTKEKAALLYKKIMEKYSVTFISRHNSYNHNILFFLTPHRHRVSAINNYAQKLCTFSFLICKGVNKEYLMYSALTRDPFSVIEESLPGGLKEHDFNPEEAEETKQVSWKLVTEYAMETKCDDVLLLLGMYLEFQYSFEMCLKCIKKEQPSHYKYHEKHYANAAIFADSKNQKTICQQAVDTVLAKKRVDSLQLTREQMLTNRFNDLLDRMDIMFGSTGSADIEEWMAGVAWLHCLLPKMDSVVYDFLKCMVYNIPKKRYWLFKGPIDSGKTTLAAALLELCGGKALNVNLPLDRLNFELGVAIDQFLVVFEDVKGTGGESRDLPSGQGINNLDNLRDYLDGSVKVNLEKKHLNKRTQIFPPGIVTMNEYSVPKTLQARFVKQIDFRPKDYLKHCLERSEFLLEKRIIQSGIALLLMLIWYRPVAEFAQSIQSRIVEWKERLDKEFSLSVYQKMKFNVAMGIGVLD,stoichiometry N,SEC,6
same,stoichiometry N,crystal structure,2
EP-half ori 32 bp (dsDNA) DNA 1: ACTACTTCTGGAATAGCTCAGAGGCCGAGGCG DNA 2: CGCCTCGGCCTCTGAGCTATTCCAGAAGTAGT,binding result,[2],binds
